According to patent publication US20150004637A1, “SYSTEMS AND METHODS FOR IMAGING AT HIGH SPATIAL AND/OR TEMPORAL PRECISION” (President and Fellows of Harvard College, priority 2011, published 2015):

B1: Archaerhodopsin 3 (protein)
chain: MDPIALQAGYDLLGDGRPETLWLGIGTLLMLIGTFYFLVRGWGVTDKDAREYYAVTILVPGIASAAYLSMFFGIGLTEVTVGGEMLDIYYARYADWLFTTPLLLLDLALLAKVDRVTIGTLVGVDALMIVTGLIGALSHTAIARYSWWLFSTICMIVVLYFLATSLRSAAKERGPEVASTFNTLTALVLVLWTAYPILWIIGTEGAGVVGLGIETLLFMVLDVTAKVGFGFILLRSRAILGDTEAPEPSAGADVSAAD
modifications: Halorubrum sodomense
notes: Microbial rhodopsin from Halorubrum sodomense, light-driven proton pump used as fluorescent voltage indicator; experiments used an Arch-eGFP fusion
B2: Arch D95N: Archaerhodopsin 3 with aspartic acid 95 mutated to asparagine; non-pumping voltage indicator (protein, UniProt P96787 7-258, looked up, variant D95N)
Archaerhodopsin-3: QAGYDLLGDGRPETLWLGIGTLLMLIGTFYFLVRGWGVTDKDAREYYAVTILVPGIASAAYLSMFFGIGLTEVTVGGEMLDIYYARYANWLFTTPLLLLDLALLAKVDRVTIGTLVGVDALMIVTGLIGALSHTAIARYSWWLFSTICMIVVLYFLATSLRSAAKERGPEVASTFNTLTALVLVLWTAYPILWIIGTEGAGVVGLGIETLLFMVLDVTAKVGFGFILLRSRAILGDTEAPEPSAGADVSAAD

Legend:
Type in all cases: physicochemical
[1] = Spectroscopic characterization of Arch WT and D95N (absorption, emission, extinction, quantum yield); settings: for λmax em: Excitation at λ=532 nm; for ε633: assuming same peak extinction coefficient as Bacteriorhodopsin, 63,000 M^−1 cm^−1; for QY (fluorescence quantum yield): comparison to Alexa 647, excitation at λ=633 nm; for λmax abs: neutral pH
Method: Arch and its D95N mutant were expressed in E. coli. Briefly, E. coli (strain BL21, pet28b plasmid) was grown in 1 L of LB with 100 micrograms/mL kanamycin, to an O.D 600 of 0.4 at 37° C. All-trans retinal (5 micromolar) and inducer (IPTG 0.5 mM) were added and cells were grown for an additional 3.5 hours in the dark. Cells were harvested by centrifugation and resuspended in 50 mM Tris, 2 mM MgCl2 at pH 7.3 and lysed with a tip sonicator for 5 minutes. The lysate was centrifuged and the pellet was resuspended in PBS supplemented with 1.5% dodecyl maltoside (DM). The mixture was homogenized with a glass/Teflon Potter Elvehjem homogenizer and centrifuged again. The solubilized protein in the supernatant was used for experiments.
(§1) (2) Spectroscopic characterization of Arch WT and D95N. The absorption spectra of fractionated E. coli membranes containing Arch WT and D95N were determined using an Ocean Optics USB4000 spectrometer with a DT-MINI-2-GS light source (FIG. 8). The peak extinction coefficients of microbial rhodopsins vary across rhodopsin types from 48,000 to 63,000 M^−1 cm^−1. Due to the high homology between Arch and bacteriorhodopsin (BR), the BR extinction coefficient, 63,000 M^−1 cm^−1, was used for Arch. […] For Arch WT, 633 nm was in the tail of the absorption while for Arch D95N 633 nm lay halfway down the shoulder. The relative extinction coefficients of Arch WT and D95N at 633 nm was independent of the choice to use BR as the reference for the peak extinction coefficient. Absorption spectra for Arch WT and D95N were measured as a function of pH between pH 6 and 11.
The fluorescence emission spectra of Arch WT and D95N were determined using illumination with a 100 mW, 532 nm laser (Dragon Lasers, 532GLM100) or a 25 mW, 633 nm HeNe laser (Spectra-Physics) (FIG. 8). Scattered laser light was blocked with a 532 nm Raman notch filter (Omega Optical, XR03) or a 710/100 emission filter (Chroma), and fluorescence was collected perpendicular to the illumination with a 1000 micron fiber, which passed the light to an Ocean Optics QE65000 spectrometer. Spectra were integrated for 2 seconds. Arch WT and D95N both had emission maxima at 687 nm.
The fluorescence quantum yields of Arch WT and D95N were determined by comparing the integrated emission intensity to emission of a sample of the dye Alexa 647. Briefly, the concentrations of micromolar solutions of dye and protein were determined using a visible absorption spectrum. The extinction coefficients of 270,000 M^−1cm^−1 for Alexa 647 and 63,000 M^−1 cm^−1 for Arch WT and D95N were used, assuming that these microbial rhodopsins have the same extinction coefficient as bacteriorhodopsin. […] The fluorescence emission spectra of dye and protein samples were measured with 633 nm excitation. The quantum yield was then determined by the formula
where Fl is the integrated fluorescence from 660 to 760 nm, epsilon (∈) is the extinction coefficient at 633 nm and c is the concentration.

[2] = pKa of the Schiff base from absorption spectra versus pH; settings: singular value decomposition on absorption spectra, pH 6-11
Method: FIG. 8C illustrates absorption spectra recorded on purified protein between about pH 6 and about pH 11. Singular Value Decomposition of absorption spectra between 400-750 nm was used to calculate the fraction of the SB in the protonated state as a function of pH. The result was fit to a Hill function to determine the pKa of the SB.
as §1

[3] = Relative photostability of Arch and eGFP (photobleaching of Arch-eGFP fusion); settings: measured in a 1:1 fusion with eGFP
Method: (3) Relative photostability of Arch and eGFP. To perform a direct comparison of photostability of Arch and eGFP the photobleaching of the Arch-eGFP fusion was studied. This strategy guaranteed a 1:1 stoichiometry of the two fluorophores, simplifying the analysis. The experiments were performed on permeabilized cells, in the microscope, with video recording as the cells photobleached. A movie of photobleaching of Arch was first recorded under 640 nm illumination; then on the same field of view photobleaching of eGFP under 488 nm illumination was recorded, with illumination intensity adjusted to yield approximately the same initial count rate as for Arch. Fluorescence background levels were obtained from nearby protein-free regions of each movie and were subtracted from the intensity of the protein-containing regions. The area under each photobleaching timetrace was calculated, yielding an estimate of the total number of detected photons from each fluorophore. The eGFP emission (lambda-max=509 nm) and the Arch emission (lambda-max=687 nm) were collected through different emission filters, so the raw counts were corrected for the transmission spectra of the filters and the wavelength-dependent quantum yield of the EMCCD camera. The result was that the relative number of photons emitted prior to photobleaching for eGFP:Arch WT was 3.9:1, and for eGFP:ArchD95N this ratio was 10:1.

| Molecule | λmax em [1] | λmax em ([1]; listed as Arch) | ε633 [1] | QY (fluorescence quantum yield) [1] | QY (fluorescence quantum yield) ([1]; listed as Arch) | λmax abs [1] | pKa of SB [2] | Photostability relative to eGFP [3] | λmax abs ([1]; listed as Arch^D95N) | λmax abs ([1]; listed as D95N) |
| --- | --- | --- | --- | --- | --- | --- | --- | --- | --- | --- |
| B1 | 687 nm | ≈ 687 nm | 6,300 M^−1 cm^−1 | 9 × 10^−4 | about 9×10^−4 | 558 nm | 10.1 | 0.25 |  |  |
| B2 | 687 nm |  | 37,500 M^−1 cm^−1 | 4 × 10^−4 |  | 585 nm | 8.9 | 0.1 | about 585 nm | 585 nm |
